From the domain aggregation screens of Martell et al. (2025)

Test: soluble fraction after stress (log2 fold change); higher = more stays soluble; pooled small domains, quantitative proteomics
Details: stress: pH 4
Summary of the method: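 Following acid stress at pH 4, the amount of each small protein domain still soluble was measured in pooled custom libraries by high-throughput quantitative proteomics. Its fold change, on a log2 scale, is higher when more of the domain stayed soluble. This fold change is taken as a measure of aggregation propensity.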

Sequence | soluble fraction (log2)
HMQQDGSSSLGENMLNQELQARGVVPSEIPQEVWERVIQEAGKKSKREIYADIGLGRSLAAGFAQRLAA | -0.0576
HMSSRLEIEITSKIDDLSHTWRAVGAKQPKGNIKSSLLPSGVKVGETFRVEADFLLDGIEIVSVLPP | -1.52
HMNQWQLLSEDGAILGTRVLYHPHETEQPFTRSLSGVKIPAHVQSVTIRAGDLVHGFGGREIQMQLPPIV | 0.0124
HMLTQEEITRRRGEILTAAMGVILRKGFLETSMREIAEAAGVGKSTLYDYFPSKDEIMIAYVVD | -0.869
HMKFTSEKDISLLELVKAKMGFVSNTKARNVIKIGQIMVSGKVIKIPSTLIKPGTEVELARRV | 0.32
HMVPTATVGENTSTLPVRQLPGGPVLVVLVRGDIVLPLPGHAFQNGDVWREISTVNGVIGWVPDEFLDY | -1.3
HMHHDQQQITAELARIARNGLPGLTADNAIISRLDALNLLINIHDDRGADATPLRGLLPAIADELLRLT | 0.0087
HMSSLEQVYPNPVSSILKLNSFIKNYKILNATGHEVLKGSGNTINVGKLPSGSYFLITSENYSIKFIK | 0.119
HMDGRVQATAEKLRAALDRLARSSVGSPMIERQLTVAALAREARVGRNAIYANHRDILDELIRVRQQRRA | -0.309
HMSGLGELTPRELEVLELMAQGLSNSQIAGRLFLSGAAVAKHVSSIFSKLGFEPGDENRRVRAILAFLNR | -0.751
HMTDFLKTRIDTLGLSTRTLNALSEANVRTIGGIARKKQEDLLEIDGIGEKGIQEIKKMLGEYGITL | -0.52
HMGEVISRSYPLLKTKAKPAEVSEALQKLIKAPATVTFDEKNEVFHINATRLQHTWAEGYFKGLHGK | -0.172
HMDADGEPIKLDQIGISHLSFTVADVKSLGEELVAKGVKLAAPMEAFTSPEGRISSIFVYDPDGILLQFDD | -0.123
HMSYYKEMIRLADSIADKAHEGQTDRNGWPYISHPRRVALGARKLVSEMASSTSPDTSLEELKAEVQIVAL | 0.00833
HMKKQLKSEAVADELRRKILSGGFPDKRLPRKDELTEYFQVSQKTVEAALKMLTAEGLIRGVKGTGIFVNG | 0.156
HMLPGWMETKFTANVSENTKNRTLEEHVLKMLNNKESAAEFIIFLHEKMMSVSGQVFQLDSR | -0.0998
HMQGEVPYSQFLTEVDRGDVQSVVIEGNNISGFYKNSSTAFTVVAPDDPKLVERLMEQGVEVKARPV | ≥ 0.43
HMTMNYYDILSIKRDATLEEIQKAYKEKSFQFHPDFNKGISDDSMFRIIKEAYETLSDTEKRNQYDASLNK | -0.134
HMKLEEITIIVPSLRLDNFVSDLARTSRSKAVQIIDSERVFINGQNETKASKQVKLGDVITSA | -0.767
HMKITININIETLSHHIKQSGVPLGRLQESVPDYNEIVTGNKSPTYQQLEKISKLIRVPLGLLVIESPL | -0.451
HMRDSYTFEDIEKLKDSYLQDSEKALEKLISIYEDTNQSLAIRTAALDIITDSQDPTFKLALEKIIS | -0.751
HMDAYDEVTTLSQMVASGKNTTVAHLKHLKEYHQTDYLRQAVEWLLSNRKNVSFSVDEVMQEVHN | -0.434
HMNEFAYLIKISPEHNNNRYYRMVAEGDNFRIEMGRIGASPVQMKRPMYLWNETYQKKLQEGYTDRTSYTS | -0.2
HMVSRVTTPGVVGKTWQETKQILKQADLTVGSLTRDGKDVTPADGDLVTAQNPSAGQAIVRGSSVDLTFDK | 0.0198
HMETPDLTQLNPILDEYRGQKGAVIPVLQKAQKIYGFLPPEVLRRIAAGMRVPLSKIYGVATFYSQFY | -0.0265

Sequence | soluble fraction (log2)
HMYSNDEIVNYLKNYIFDNFNLNELSDEELEEKIAELVQQQFAGQLLSLDEKVKLVNQVYSSIR | -0.139
HMGGNDALEIAKSNPQVIEVLGEPVTKDGMGSYSVNYKNGHKTSEATIPIEGPNGTATLHVKTSGSDDAL | 0.22
HMDNTSNVEKTLRFIRQRGKVSRKEVETLLGSSKFPAISALNELLAENKIVKTGSGPAVRYSVS | 0.018
HMPATIEGIRLYLSSGLIKGVGEEMASRIVKAFGTDTIRVLDEEPERLLKVRGVGKKSLDRIRTSWAEH | -0.585
HMVTIYQRIMLVLEDKQVSVNALSKLVDMSQTTLNTQLKGERTLSANVVAKVLVAYPDVSAEWLMRGVGTM | -0.426
HMEYDEVVVVKQIIPKGKNTMVAHLKHLKEHGETGFLKQAVGYLKLHASEIPFSVDAVISEVH | -0.0529
HMEEIDLTPAEEILNKLPDNSRGYLIPTLNKIQNAYRFLPDPAMELLMEFFNVSRAEIFGVISFYPQLMI | -0.533
HMATYETEVISGVNLRSAPNTSASVYRLLSKGEDIHVIQKVNDYWLKVQTKDGKIGYISASSKYTNYIA | -0.132
HMKDLDSLSQEAKSVYAVFSDKPIHIDDIKRKTGLDFSKLFKAVTELELAELISSGEGKMYSL | -0.858
HMKMPNGYGSITKLSGKRRKPWRVRKTAGWELDAKTQKLKQTYINIGYYETRADAMSALVSYNEDP | -0.151
HMTATKDLPFSTFITEVEKGNITSVDIKGNQIEGTFSNGAKFKTYSPNYPNLVERLADKGVAISAGPS | 0.141
HMTKGDRIKARREELGLTQTDLAEAISSTKQNIYKYENNIISNIPSDKVEAIAEVLKISPAYLMGWGDE | -0.594
HMGLSAEAARMAIQDAGLSKEDFAQKLGIKKVERVVEWEAGTSKPTFVQAQKIANATNIPFGYLFLVNPPK | 0.0939
HMQVSEQVQRLLDALENDTLTTKELMDRLGLKHRPTFRKNYLLPSMKLGLVEMTIPDKPNSSRQKYRRRQ | 0.00707
HMSEVSEILTRARFFAGVKTDAELSTLLKIPYGTLIGWKTRKNIPESRIAQMALILGIRRDTLIPA | -0.11
HMIGIGSDVPNKLKPAIYSFGLVAVGEKSVIPDGVQIGKNTAVSGVTSKEDYPDGVLESGETLIKA | 0.22
HMTTTSGLIKTIQTGRRKLGMDDETYRALLADVSGGKTSSKDLNAYQLKEVLRRMREAGFRS | 0.371
HMDSAMMDLVMRVQLALFTKGYDVGIIDGKIGPKTRAQIKRYQSDNRLSSTGTLTTSLLTSLGIQ | 0.00457
HMKYRLLGENLQTIRKARGMKQQELADQIGINMQSLSKIERGLNYPTFETLEKIMNALGITPNELLSG | -0.798
HMEDPAVYYKILQIPPDASLSEIHRAFEKITSAWDPERYPHISSWKETSAKKLQEIRNAYEKLLILRETG | -0.00219
HMTQGRVTGDGVNVRSQPNTDSAILTRVSTGKVVELISLKDNWYNVVVNGTKGYIRADYVSPYDG | 0.00816
HMETINERVNSIIEREGHTVATFAKKIGVPWTTIKNIVSGRNAPSYDIMVKIINAVDWVDANYLVMG | -1.16
HMLDFGQEDSEAVSEIILVLGRYWMDFSHKKYPEAEGSALRHKGISHIFTVLKPYLTSATAQLIEQRLQQ | -0.398
HMKNTLDAYIRYLSNFLSRNNYPEAEDLSFINARADQAYEVFLEARRGGVDVSTAEELAMIALMQGY | -1.34
HMRQTGWVTADSLNVRARPSLQAERVEKVTYGQQVQIMFKQGQWYQIATENGKIGWVSSEYIAAVSP | 0.0725

Sequence | soluble fraction (log2)
HMDPPISNDARNAINAKLMKFSELHPNEMKKLVEAYKKEFKVSKISPITLARQGEFLSHAISKIDDT | -0.0331
HMANTAKVNVDTANLRETADENSKILKQLSLNDNLEVVEETGDWYKVKNSNVTGYVRKDLVTVEN | 0.244
HMKSGLLNLSTRKQEKIKQALLSEFSNVSLLEAKVANIVTLAEISRGSFYTYFEDIYDAYQWLASI | 0.22
HMRIWTPEMIKEYIISSNGKEPLNSHYYSTNHPSIYAAAERIFGSWGNAINAAGLDYNAIRKYK | -0.0687
HMKIQTYEDFRNAYPDIQGSLFGSAERYKTDLDWGDVAAKYDADEELKNVRNIFQLVRRYEQKYS | -0.643
HMEFPYISGVDVGTISNKEFARFETTKASDIVIALDKSGIPFSARFGDSEIVLTYDGSYKEEVEEIIAKV | -0.115
HMKYRPGDVVTLRVARMGEMGAFLDAGTGNTNDDILLHKMQQTEEIKAGQDVKVYLYLDPNRRLTASMKL | -0.0269
HMSSDLSNVVKIIDTLKHKKGALLPILHQIQREIGYIPLKTIDTIAKKLQQTPAEIHGVISFYHQFRTS | 0.22
HMGGPEPIPAQIREGDTVYVTKFKQLGLVLKISEDTAEVQIGPLRATVAKTELSKVDATATEHR | -0.0107
HMNYKDQISRYFQQAFHIYPKYQTMKNEEGNFTSKIFKDDKMIIEGVGKSKKKAEQDVSRKALIHFNVL | 0.398
HMEELPVLHLKHVVVEGESLWKLAEQYLNDGTRWQEIYMLNRENISNPDLIREGQELNIQFLQGE | -1.05
HMPPENVSVRREQIAEDKKTVYNVWVTKGNKTVLYSKVVYAWGGVYFFRDLNTSISENMYKQADAGLVN | -0.0222
HMTIDNPESQKIMDMVPFFFQSRNYDEAIEALTYVIEQEPQFSEAYNKRATFYFMMGDLENSMKDIEITLA | -0.568
HMVNYKEILRLAHEGYSQRQIATNIGNSRNTVSEVLDAAKAANIAWPPEETVTNEQLGAILFPNRH | ≥ 0.43
HMTRTISKVAKELAINIETVRFYERRGLIEQPPKPELGYRHYPDETVNRIRFIKRAQELGFTLEEIANLLS | -1.21
HMDGPGAGGRFLAEDLGTGKMTLEALQRHYVTLVYSRTGKYEETARRLEIDRRTVKKYLDEELLAELRET | -0.0817
HMGQELRFVIQDHEAGIRLDHYLTQQVEGYSRSHLRKLMDQGLITVDGSYRKAGYRLNVGDVIHVVIPPTR | -0.0619
HMYMKGKVKWFDSKKGYGFITSENGKEIFVHFSGIAAKGFKSLNEGQTVEFEVANGAKGEQAVNVTV | 0.178
HMSVAVKAPLQGTVMKVNVKPGDTVTKGAPVAVIEALKMENDVPAPQDGVVASVDVKSGDSVKTDQVLLTL | -0.00426
HMNMFDMRKTGARISQLRRAAGLTQAELAEKLGISYQAVSSWERGSNMPDIGKLLDLARILNTTVDALLSA | 0.309
HMRTEGNLGAKVRVLRRSQGMTQAELARRLGISPSYLNLIEHNRRSFTADLLVKLAKILPVNLKT | 0.04
HMSLIHEQSLKEIRIFINNLPESLRTAFTLREQDGLSYEEISKITDTPIGTVRSRIFRARESILEHINEEL | -0.599
HMHSVIALTIPADYAGLRLDQALAKLLPNWSRSRLQTWIAENRVILDGQITTIKQKVWGNELIQISPQD | -0.252
HMDKPIFTLRENEVLYWASMGKTYAEIATIVGISVRTVKFHMGNVVSKLGVSNARQAIRLGVELDLITPMQ | -1.76
HMEILVSTRRHEIASLLSRKKRVSFFELFPEKTKEYVVATFLAILEMAKAREVNITQEDTFDEIIVEEA | -1.09
